The values below are quoted from earlier work in PMC3670934.

Targets include CCL26 (Homo sapiens) (UniProt Q9Y258); CCL24 (Homo sapiens) (UniProt O00175); CCL11 (Homo sapiens) (UniProt P51671).

CCR3, sequence (P51677 whole entry): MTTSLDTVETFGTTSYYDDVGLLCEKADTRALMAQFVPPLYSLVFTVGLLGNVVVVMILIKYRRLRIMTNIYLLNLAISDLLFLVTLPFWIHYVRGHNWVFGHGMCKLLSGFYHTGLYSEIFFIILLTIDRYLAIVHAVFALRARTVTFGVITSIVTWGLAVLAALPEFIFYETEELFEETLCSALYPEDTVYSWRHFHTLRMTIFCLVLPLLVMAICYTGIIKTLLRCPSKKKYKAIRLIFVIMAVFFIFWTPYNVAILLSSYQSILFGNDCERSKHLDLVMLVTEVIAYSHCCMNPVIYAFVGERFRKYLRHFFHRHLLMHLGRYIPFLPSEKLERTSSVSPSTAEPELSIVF
CCL26 (Homo sapiens), sequence (Q9Y258 24-94): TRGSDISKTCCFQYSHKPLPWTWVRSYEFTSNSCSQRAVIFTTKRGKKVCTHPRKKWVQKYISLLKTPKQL
CCL11 (Homo sapiens), sequence (P51671 24-97): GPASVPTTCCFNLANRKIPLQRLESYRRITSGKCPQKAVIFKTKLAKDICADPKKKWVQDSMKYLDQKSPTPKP
CCL24 (Homo sapiens), sequence (O00175 27-119): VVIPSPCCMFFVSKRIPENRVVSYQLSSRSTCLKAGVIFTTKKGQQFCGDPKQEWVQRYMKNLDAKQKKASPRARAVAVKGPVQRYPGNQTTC

As for CCR3 (from UniProt P51677), the equilibrium dissociation constant (Kd) with CCL26 (Homo sapiens) is 0.9 nM; in the series with CCL24 (Homo sapiens), 0.6 nM; in the series with CCL11 (Homo sapiens) it was 0.52 nM.
